Source: patent US12018084B2, “Anti-CXCR2 antibodies and uses thereof” (Cephalon LLC, priority 2018, dated 2024)

T1: Human CXCR2 (Homo sapiens, UniProt P25025)
T1 sequence (P25025 1-360): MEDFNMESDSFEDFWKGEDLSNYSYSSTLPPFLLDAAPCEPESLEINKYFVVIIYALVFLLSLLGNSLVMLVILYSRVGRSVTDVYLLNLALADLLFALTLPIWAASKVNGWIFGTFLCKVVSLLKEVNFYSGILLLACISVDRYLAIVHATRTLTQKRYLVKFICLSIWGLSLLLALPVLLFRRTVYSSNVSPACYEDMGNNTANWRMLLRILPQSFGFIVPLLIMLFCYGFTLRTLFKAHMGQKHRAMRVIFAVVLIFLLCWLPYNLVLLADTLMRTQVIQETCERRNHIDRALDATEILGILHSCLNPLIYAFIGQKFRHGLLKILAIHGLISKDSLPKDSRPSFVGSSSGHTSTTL


Experiments:
[1] = system: native cynomolgus CXCR2 expressed by cynomolgus neutrophils; assay: Flow cytometry binding to cynomolgus blood neutrophils; design: species or system cynomolgus monkey; conditions: FIG. 2, MFI
Method: Whole human buffy coat, PBMC enriched fractions prepared from human peripheral blood buffy coat or cynomolgus monkey whole blood was used for analysis of antibody binding activity by flow cytometry. Briefly, blood was untreated or diluted 1:1 in sterile filtered room temperature phosphate-buffered saline (PBS). 30 mL samples were layered over 15 mL Lymphoprep™ (Stem Cell Technologies, cat #07851). Peripheral blood mononuclear cells (PBMC) were enriched by room temperature centrifugation at 700 g for 30 minutes with no braking. The PBMC layer was isolated and cells washed in PBS containing 2 mM EDTA with low speed centrifugation at 200 g, to remove platelet contamination. Whole blood or PBMC enriched cell fractions were resuspended in red blood cell lysing solution (BioLegend, 420301). Viable cell counts were determined and cells resuspended at 1×10^7 cells per mL in FACS buffer (1×PBS+0.5% (w/v) BSA+2 mM EDTA pH 7.2).
Flow cytometry binding assays using whole blood or PBMC enriched preparations: Binding assays to detect CXCR2 on blood neutrophil populations using test antibodies were performed essentially as described for assays using transiently transfected Expi293F™ cells. Binding of antibodies to human CXCR2 on the surface of the neutrophils was measured using anti-CXCR2 antibody directly conjugated to the fluorophore allophycocyanin (APC). Matched isotype control antibodies were included for comparison. Cells were incubated with lineage specific antibodies and 2 μg/ml of APC conjugated anti-CXCR2 antibody or isotype control prepared in ice cold 3% BSA/PBS for a minimum of 30 minutes at 4° C. The commercial anti-CXCR2 antibody (clone 48331 (R&D Systems FAB331A)) was used as a positive control. […] The level of fluorescence on the cell surface was measured by flow cytometry. Using this method, test anti-CXCR2 antibodies were detected binding neutrophils from both human and cynomolgus monkey.

Human CXCR2 = molecular target: T1, Human CXCR2; assay: Calcium flux assay, HTS002C-CHEMISCREEN human CXCR2 calcium-optimized cell line; type: cell-based
Method: One of the signaling pathways downstream of CXCR2 activation that has a role in cell chemotaxis is characterized by calcium mobilization (flux). The ability of BKO-4A8-101c to inhibit human CXCR2 ligand-induced calcium flux was tested in the commercially available HTS002C-CHEMISCREEN™ human CXCR2 chemokine receptor calcium-optimized cell line.
The Fluo-4 NW calcium assay kit (Life Technologies) was used according to manufacturer's protocol for in-cell measurement of calcium mobilization, which was read using a FLIPR Tetra high-throughput cellular screening system (Molecular Devices). The peak response minus the basal response from each well was used to determine inhibition dose response curves fitting a four-parameter logistic equation and IC50 values.

[2] = system: human CXCR family members (CXCR1, CXCR3, CXCR4, CXCR5, CXCR6, CXCR7); assay: Flow cytometry binding to other human CXCR family members on transfected Expi293F cells; conditions: FIG. 11
Method: Harvested cells were resuspended in FACS buffer (1×PBS+0.5% (w/v) bovine serum albumin (BSA)+2 mM EDTA pH 7.2). Approximately 2×10^5 cells were added per well in a 96-well round-bottomed plate. Cells were pelleted by centrifugation at 400 g for 5 mins at 4° C. and supernatants discarded. 25 μL of each test antibody or control antibody was added to the cells and incubated for 30 minutes at 4° C. Cells were washed twice in 100 μL FACS buffer followed by centrifugation at 400 g for 5 mins at 4° C.
For detection, 50 μL of secondary antibody (Table 2) was added to relevant samples. Commercially available antibodies that bound to transfected CXCR family members were used as positive controls to ensure that the cells were expressing the receptors. Cells were washed twice in 200 μL of FACS buffer followed by centrifugation at 400 g for 5 mins at 4° C. Before sample acquisition, cells were resuspended in 100 μL of FACS buffer. Samples were acquired using the high throughput sampler on a FACSCanto™ II cytometer (Beckton-Dickinson). […]
The specificity of the anti-CXCR2 antibody BKO-4A8-101c was tested by assessing binding activity on Expi293F™ cells transiently transfected to express closely related human CXCR family members as illustrated in FIG. 11. Binding of BKO-4A8-101c was detected by incubation of fluorochrome-conjugate anti-human IgG antibody.

Chain of native cynomolgus CXCR2 expressed by cynomolgus neutrophils (as listed by the source): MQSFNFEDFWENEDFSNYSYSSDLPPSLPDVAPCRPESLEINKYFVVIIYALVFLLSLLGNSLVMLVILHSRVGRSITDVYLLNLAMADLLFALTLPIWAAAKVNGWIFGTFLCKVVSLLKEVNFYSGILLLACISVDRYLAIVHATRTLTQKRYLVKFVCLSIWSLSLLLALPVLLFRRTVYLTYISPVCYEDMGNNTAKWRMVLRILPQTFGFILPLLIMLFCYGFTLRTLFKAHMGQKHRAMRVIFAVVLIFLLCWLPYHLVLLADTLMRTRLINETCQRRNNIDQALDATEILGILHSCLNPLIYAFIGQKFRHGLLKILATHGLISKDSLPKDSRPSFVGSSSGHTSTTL

Molecule	binding to native cynomolgus CXCR2 on cynomolgus PBMCs / neutrophils [1]	CXCL1 Maximal Inhibition % (Human CXCR2; CXCL1 at EC50)	CXCL8 Maximal Inhibition % (Human CXCR2; CXCL8 at EC50)	Maximal Inhibition % Mean (Human CXCR2; Hu CXCL1)	Maximal Inhibition % Mean (Human CXCR2; Hu CXCL2)	Maximal Inhibition % Mean (Human CXCR2; Hu CXCL3)	Maximal Inhibition % Mean (Human CXCR2; Hu CXCL5)	Maximal Inhibition % Mean (Human CXCR2; Hu CXCL6)	Maximal Inhibition % Mean (Human CXCR2; Hu CXCL7)	Maximal Inhibition % Mean (Human CXCR2; Hu CXCL8)	specificity of binding among human CXCR family members [2]
BKO-4A8: parental anti-CXCR2 antibody, VH SEQ ID NO: 17, VL SEQ ID NO: 18 (antibody, V domains shown, BKO_4A8_VH; BKO_4A8_VL) VH: EVQLLESGGGLVQPGGSLRLSCAASGFTFSSSTMSWVRQAPGKGLEWVSAISGRGRNTYYADSVKGRFTISRDNSRNTLYLQMNSLRAEDTAVYYCAIQMGYWGQGILVTVSS VL: QSALTQPPSASGSPGQSVTISCIGTSSDVGGYNYVSWYQQHPDKAPKLMIYEVNKRPSGVPDRFSGSKSGNTASLTVSGLQAEDEADYYCSSYAGNNNFGVFGGGTKLTVL	high binding activity	–	–	–	–	–	–	–	–	–	–
101c: VH SEQ ID NO: 108, VL SEQ ID NO: 110; renamed BKO-4A8-101c (antibody, V domains shown, 4A8 VH Variant 101 M34Q_A40P_N56S_R75K_M96A; 4A8 VL variant c D41G_N52S_N94S, renamed BKO-4A8-101c) VH: EVQLLESGGGLVQPGGSLRLSCAASGFTFSSSTQSWVRQPPGKGLEWVSAISGRGRSTYYADSVKGRFTISRDNSKNTLYLQMNSLRAEDTAVYYCAIQAGYWGQGILVTVSS VL: QSALTQPPSASGSPGQSVTISCIGTSSDVGGYNYVSWYQQHPGKAPKLMIYEVSKRPSGVPDRFSGSKSGNTASLTVSGLQAEDEADYYCSSYAGSNNFGVFGGGTKLTVL	–	93%	9%	91%	88%	52%	81%	81%	43%	9%	strongly and exclusively bind human CXCR2
